Tests used:
[1] = target: the molecule itself; assay: crystal structure; HiNagB crystals, P21, 12 monomers in the asymmetric unit, 3.0 Å; 2% Tacsimate pH 5.0, 0.1 M sodium citrate pH 5.6, 16% PEG 3350, 0.1 M strontium chloride, 18°C
[2] = target: the molecule itself; assay: crystal structure; PmNagB crystals, P21, 4 monomers in the asymmetric unit, 2.3 Å; 100 mM sodium cacodylate/HCl pH 6.5, 200 mM MgCl2, 20% PEG 1000, 18°C; analysis of crystal packing

| Protein | stoichiometry N [1] | stoichiometry N [2] |
| --- | --- | --- |
| Glucosamine-6-phosphate deaminase (NagB) from Haemophilus influenzae (enzyme, Glucosamine-6-phosphate deaminase (NagB), Haemophilus influenzae; Made from a Gateway recombinant plasmid; also called HiNagB; Hi-NagB; source: E. coli BL21(DE3)*, purified (Ni-NTA, SEC)) not shown | 6 |  |
| Glucosamine-6-phosphate deaminase (NagB) from Pasteurella multocida (enzyme, Glucosamine-6-phosphate deaminase (NagB), Pasteurella multocida; Made from a Gateway recombinant plasmid; also called PmNagB; Pm-NagB; source: E. coli BL21(DE3)*, purified (Ni-NTA, SEC)) not shown |  | 2 |
